Data published in paper PMC6882858, “Seryl tRNA synthetase cooperates with POT1 to regulate telomere length and cellular senescence” (Signal Transduction and Targeted Therapy, 2019).

B1: recombinant POT1 with a His6 tag at its C-terminal end (natural protein, human, UniProt Q9NUX5 1-634, looked up)
chain: MSLVPATNYIYTPLNQLKGGTIVNVYGVVKFFKPPYLSKGTDYCSVVTIVDQTNVKLTCLLFSGNYEALPIIYKNGDIVRFHRLKIQVYKKETQGITSSGFASLTFEGTLGAPIIPRTSSKYFNFTTEDHKMVEALRVWASTHMSPSWTLLKLCDVQPMQYFDLTCQLLGKAEVDGASFLLKVWDGTRTPFPSWRVLIQDLVLEGDLSHIHRLQNLTIDILVYDNHVHVARSLKVGSFLRIYSLHTKLQSMNSENQTMLSLEFHLHGGTSYGRGIRVLPESNSDVDQLKKDLESANLTANQHSDVICQSEPDDSFPSSGSVSLYEVERCQQLSATILTDHQYLERTPLCAILKQKAPQQYRIRAKLRSYKPRRLFQSVKLHCPKCHLLQEVPHEGDLDIIFQDGATKTPDVKLQNTSLYDSKIWTTKNQKGRKVAVHFVKNNGILPLSNECLLLIEGGTLSEICKLSNKFNSVIPVRSGHEDLELLDLSAPFLIQGTIHHYGCKQCSSLRSIQNLNSLVDKTSWIPSSVAEALGIVPLQYVFVMTFTLDDGTGVLEAYLMDSDKFFQIPASEVLMDDDLQKSVDMIMDMFCPPGIKIDAYPWLECFIKSYNVTNGTDNQICYQIFDTTVAEDVI
notes: also called His6-tagged POT1; pET-20b-POT1; not shown: His6, C-terminal, kept
B2: GST-fused full-length POT1 (natural protein, human, UniProt Q9NUX5 1-634, looked up)
chain: B1 chain
notes: Held on beads in the GST pull-down; also called GST-POT1 FL; pGEX6P-1-POT1; not shown: GST, N-terminal, kept

Experiments:
[1] = target: T1, GST-fused full length SerRS (human, UniProt P49591 1-514); test: pull-down; GST-fusion proteins bound to beads incubated with 0.5 uM purified recombinant His6-tagged protein in 500 ul GST pulldown buffer (150 mM NaCl, 20 mM HEPES pH 7.9, 0.5 mM EDTA, 0.1% Triton X-100, 10% glycerol, 1 mM DTT) overnight at 4 °C; washed 5 times; western blot with anti-His or anti-GST; details: both partners purified
T1 construct: also called GST-SerRS FL; pGEX6P-1-SerRS

[2] = target: T2, purified His6-tagged SerRS (human, UniProt P49591 1-514); test: as above; details: both partners purified
T2 construct: also called recombinant SerRS; PET-20b-SerRS
T2 sequence (P49591 whole entry): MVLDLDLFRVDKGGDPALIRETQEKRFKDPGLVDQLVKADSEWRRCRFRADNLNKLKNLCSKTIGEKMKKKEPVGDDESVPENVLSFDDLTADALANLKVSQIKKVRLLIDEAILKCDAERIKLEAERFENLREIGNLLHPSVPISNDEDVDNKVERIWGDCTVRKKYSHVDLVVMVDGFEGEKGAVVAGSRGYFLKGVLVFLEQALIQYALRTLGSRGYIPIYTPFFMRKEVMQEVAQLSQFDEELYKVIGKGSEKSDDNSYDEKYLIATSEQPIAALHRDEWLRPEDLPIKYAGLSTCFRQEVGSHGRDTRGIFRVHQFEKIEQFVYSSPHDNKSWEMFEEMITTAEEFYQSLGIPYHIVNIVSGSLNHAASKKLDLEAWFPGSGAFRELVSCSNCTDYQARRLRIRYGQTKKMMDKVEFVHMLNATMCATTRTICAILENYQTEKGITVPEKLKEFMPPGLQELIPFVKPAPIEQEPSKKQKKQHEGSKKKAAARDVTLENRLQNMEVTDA

T1 sequence (P49591 whole entry, the tested form may be a part): as the sequence (P49591 whole entry) above

Binder	binding result [1]	binding result [2]
B1	binds	–
B2	–	binds
